± gives the standard error. Variants at the floor of the assay were thinned out.
B1: glmS ribozyme (parent)
chain: AUAAAAGCGCCAGAACUACAGAAAUGUAGUUGACGAGGAGGAGGUUUAUCGAAUUUUCGGCGGAUGCCUCCAAA

Columns and labels:
Conditions in all cases: with glucosamine-6-phosphate
glucosamine-6-phosphate [1] = variants of: B1; test: self-cleavage kobs at 640 uM GlcN6P; higher = faster cleavage; RNA array
In short: (§1)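 Tracking of barcoded ribozyme variants used a hybridised Cy3 probe at 37 °C, after in situ transcription by E. coli RNA polymerase on sequenced MiSeq chips. The flowed solution held 40 μM to 10 mM glucosamine-6-phosphate in HEPES/KCl/Mg(OAc)2 buffer, and imaging ran over ~14 h. kobs was taken from exponential decay fits of normalised per-tile medians, and kcat and KM from weighted Michaelis–Menten fits.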

glucosamine-6-phosphate [2] = variants of: B1; test: self-cleavage kobs at 2500 uM GlcN6P; higher = faster cleavage; RNA array
In short: as §1

glucosamine-6-phosphate [3] = variants of: B1; test: self-cleavage kobs at 10000 uM GlcN6P; higher = faster cleavage; RNA array
In short: as §1

| Variant | self-cleavage kobs at 640 uM GlcN6P (glucosamine-6-phosphate [1]) | self-cleavage kobs at 2500 uM GlcN6P (glucosamine-6-phosphate [2]) | self-cleavage kobs at 10000 uM GlcN6P (glucosamine-6-phosphate [3]) |
| --- | --- | --- | --- |
| G9C G29A G62A | < 1e-05 s⁻¹ |  |  |
| C50U U57A C68A U69G C71G | 8.81e-05 ± 3.4e-05 s⁻¹ |  |  |
| A12U U31G U45G A53U | 0.00024 ± 6.1e-05 s⁻¹ | 0.00101 ± 0.00033 s⁻¹ |  |
| C16A G38U C67G | 0.0005 ± 0.00011 s⁻¹ |  |  |
| C16A A53G G62A | < 1e-05 s⁻¹ |  |  |
| G29U A33C U49G A64U | < 1e-05 s⁻¹ |  |  |
| U46G C50G C71A | 8.98e-05 ± 3.3e-05 s⁻¹ |  |  |
| G41U A53U U56G G66A | 5.34e-05 ± 1.9e-05 s⁻¹ | 0.000221 ± 4.9e-05 s⁻¹ |  |
| G32U G35U A42U U56A U57A G62U | < 1e-05 s⁻¹ | < 1e-05 s⁻¹ |  |
| G38C U49A | < 1e-05 s⁻¹ | < 1e-05 s⁻¹ | < 1e-05 s⁻¹ |
| G13A C50G U55A C67U | 0.000168 ± 8.1e-05 s⁻¹ | 7.15e-05 ± 2.6e-05 s⁻¹ |  |
| A14G A36C G66A | < 1e-05 s⁻¹ |  |  |
| A14U G29C A64G | < 1e-05 s⁻¹ |  |  |
| G9A G29A A33C G66A | < 1e-05 s⁻¹ |  |  |
| A39C A42U G62C A64U | < 1e-05 s⁻¹ |  |  |
| A12G U55G G62C | < 1e-05 s⁻¹ |  | < 1e-05 s⁻¹ |
| C34U A36G G62A U69G | 0.00111 ± 0.00031 s⁻¹ | 0.000939 ± 0.00035 s⁻¹ |  |

| Variant | self-cleavage kobs at 640 uM GlcN6P (glucosamine-6-phosphate [1]) | self-cleavage kobs at 2500 uM GlcN6P (glucosamine-6-phosphate [2]) | self-cleavage kobs at 10000 uM GlcN6P (glucosamine-6-phosphate [3]) |
| --- | --- | --- | --- |
| A15U C16G G37C | < 1e-05 s⁻¹ |  |  |
| A6G G37C G43A U46C | < 1e-05 s⁻¹ |  |  |
| C11U C58A G62U | < 1e-05 s⁻¹ |  |  |
| C8G G13U A33U U57G | < 1e-05 s⁻¹ | < 1e-05 s⁻¹ |  |
| G7U C68G | 0.000534 ± 0.00015 s⁻¹ |  |  |
| G9U A36C G43U | < 1e-05 s⁻¹ | < 1e-05 s⁻¹ |  |
| G32U G51A U57A | < 1e-05 s⁻¹ | < 1e-05 s⁻¹ |  |
| C10A G44A U47C | < 1e-05 s⁻¹ |  |  |
| G7A C8U G13U A15C A39C U55G U57A | < 1e-05 s⁻¹ |  |  |
| G40U U65G G66A | 9.33e-05 ± 1.9e-05 s⁻¹ | 0.000269 ± 8.2e-05 s⁻¹ |  |
| A33U A36C U45C | < 1e-05 s⁻¹ |  |  |
| A14G A15G U31G U45G C61G | < 1e-05 s⁻¹ | < 1e-05 s⁻¹ |  |
| C8G U31C G38A | < 1e-05 s⁻¹ |  | < 1e-05 s⁻¹ |
| G13U G62C | < 1e-05 s⁻¹ | < 1e-05 s⁻¹ |  |
| A6C G13A G63A | < 1e-05 s⁻¹ | < 1e-05 s⁻¹ |  |
| A1G A12U A64C | 0.000103 ± 3.6e-05 s⁻¹ | 0.000485 ± 0.00019 s⁻¹ | 0.000643 ± 0.00015 s⁻¹ |
| A6U C34U G40C G59C | < 1e-05 s⁻¹ |  |  |

From the supplement of paper PMC7125110
